The values below are quoted from earlier work in PMC7514057.

In general, Kd refers to the equilibrium constant for the complex coming apart.

For the data set, the target named is ArkA peptide (Ark1p) Lys(3) to Lys(-8) (Saccharomyces cerevisiae) (UniProt P53974).

In the case of Abp1p SH3 (from UniProt P15891), the Kd was 1700 nM.
